The labels stand for the following.
B1: wildtype HPV31 E6 fused to the VP16 transcriptional activation domain [human papillomavirus type 31] / pep11** fused to the GAL4 DNA binding domain (parent complex)
chain 1: MFKNPAERPRKLHELSSALEIPYDELRLNCVYCKGQLTETEVLDFAFTDLTIVYRDDTPHGVCTKCLRFYSKVSEFRWYRYSVYGTTLEKLTNKGICDLLIRCITCQRPLCPEEKQRHLDKKKRFHNIGGRWTGRCIACWRRPRTETQV
chain 2: KEKEEYNSNCSCIACIGLI

Among the data in paper PMC4226571, “The E6AP Binding Pocket of the HPV16 E6 Oncoprotein Provides a Docking Site for a Small Inhibitory Peptide Unrelated to E6AP, Indicating Druggability of E6” (PLoS ONE, 2014) are response values, retold here.

In the test the parent is B1. The test can be described thus: mammalian two-hybrid; E6 constructs contain an additional flag-tag between E6 and the VP16-AD; RLA relative to pep11**-GAL4-BD + empty pACT set at 1.0; read off a plot.
With chain 1 MFKNPAERPRKLHELSSALEIPYDELRLNCVYCKGQLTETEVLDFAFTDLTIVYRDDTPHGVCTKCLRFYSKVSEFRAYRYSVYGTTLEKLTNKGICDLLIRCITCQRPLCPEEKQRHLDKKKRFHNIGGRWTGRCIACWRRPRTETQV [chain 1 W78A], the response is ~1.2 RLA.
For chain 1 MFKNPAERPRKLHELSSALEIPYDELRLNCVYCKGQLTETEVLDFAFTDLTIVYRDDTPHGVCTKCLRFYSKVSEFRHYRYSVYGTTLEKLTNKGICDLLIRCITCQRPLCPEEKQRHLDKKKRFHNIGGRWTGRCIACWRRPRTETQV [chain 1 W78H] the value was ~39 RLA.
